Paper PMC6520365, “Structural and functional characterization of the PDZ domain of the human phosphatase PTPN3 and its interaction with the human papillomavirus E6 oncoprotein” (Scientific Reports, 2019)

Columns and labels:
[1] = target: PDZ domain of the human protein tyrosine phosphatase non-receptor type 3 (PTPN3-PDZ) (human) (UniProt P26045); experiment: AUC; sedimentation velocity, PTPN3-PDZ alone at 25 μM, 20 °C, 42000 rpm; monomer and dimer peaks
[2] = target: p38γ PBM (Homo sapiens); conditions: cited from earlier work

Sequence of PTPN4 PDZ (P29074 514-592): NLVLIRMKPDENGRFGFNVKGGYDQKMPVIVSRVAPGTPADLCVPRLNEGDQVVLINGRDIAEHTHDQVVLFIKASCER

PDZ domain of the human protein tyrosine phosphatase non-receptor type 3 (PTPN3-PDZ) (from UniProt P26045-1 504-913) (domain or fragment)
stoichiometry N [1]: 2

PTPN4 PDZ (from UniProt P29074)
Kd [2]: 1.6 µM
